Assay results taken from patent US20190331690A1, “BIOTHIOL DETECTION COMPOSITION COMPRISING REDOX REGULATION PROTENIN” (INDUSTRY-UNIVERSITY COOPERATION FOUNDATION HANYANG …, priority 2016, published 2019).

Tests used:
DNA = DNA binding strength of OhrR
[1] = tested on: biotin-binding dsDNA [SEQ ID NOs: 1 and 2]; assay: Biolayer interferometry of DNA and OhrR binding on a photosensor
Procedure: A binding degree between DNA and a protein on the surface of a photosensor (optical fiber) was measured using an instrument for biolayer interferometry (Blitz, Fortebio, USA).
Binding buffer, washing buffer: TBS (Tris 20 mM, NaCl 150 mM)
DNA binding time, OhrR binding time: 2 min
DNA concentration: 2.5 μM
OhrR concentration: 50 μM
CHP concentration: 100 μM
First, biotin-binding dsDNA [SEQ ID NOs: 1 and 2] was dissolved in a TBS buffer at the above-mentioned concentration, bound to a streptavidin-coated photosensor (optical fiber) by flowing the resulting mixture for 120 seconds, and washed with a buffer, and then the OhrR protein was associated with dsDNA binding to the photosensor by additionally flowing the protein dissolved in a TBS buffer at the above-described concentration for 120 seconds (association). After the association was completed, by additionally flowing only a buffer for 120 seconds, the dissociation process of the DNA-OhrR complex was confirmed (dissociation).
In biolayer interferometry, when a biomaterial (DNA or OhrR) is bound to the surface of a photosensor, a change in the surface refractive index of the photosensor is necessarily accompanied (the refractive index has a positive correlation with the concentration of a biomaterial), and the principle of converting the change in refractive index to a thickness is applied. […]

[2] = tested on: FAM-bound double strand (ds) DNA [SEQ ID NOs: 1 and 2]; assay: OhrR and target DNA binding by polyacrylamide gel electrophoresis; settings: dsDNA 200 nM, room temperature 30 minutes, 7% polyacrylamide gel
Procedure: Fluorescent probe (FAM)-bound double strand (ds) DNA (200 nM) [SEQ ID NOs: 1 and 2] and OhrR at concentrations shown in FIG. 3 were mixed and reacted at room temperature for 30 minutes, and then a dsDNA band was detected using a fluorescence spectrometer (KIF-300, Korea Lab Tech, Korea) through electrophoresis (25 mA, 30 min) using a polyacrylamide gel (7%). It can be seen that the fluorescent band of dsDNA shifted upward from an OhrR concentration of about 1.6 μM (concentration about 8 fold higher than DNA concentration).

[3] = Second order reaction rate between a biothiol and the redox-regulating protein; type: biochemical

B1: OhrR: redox-regulating protein, organic hydroperoxide regulator, cloned in B. subtilis strain, SEQ ID NO: 3, homodimer, 17 kD (protein, listed as Bacillus subtilis)
chain: MENKFDHMKLENQLCFLLYASSREMTKQYKPLLDKLNITYPQYLALLLLWEHETLTVKKMGEQLYLDSGTLTPMLKRMEQQGLITRKRSEEDERSVLISLTEDGALLKEKAVDIPGTILGLSKQSGEDLKQLKSALYTLLETLHQKN
modifications: homodimer
DNA
  Kd: ≤ 1 nM
[1]; OhrR 50 μM, DNA 2.5 μM, without CHP and biothiol
  binding thickness (dissociation equilibrium of OhrR minus dsDNA binding equilibrium): about 4.3 nm
[1]; in the presence of both CHP and a biothiol
  binding thickness: about 1 nm
[2]
  OhrR concentration from which the fluorescent band of dsDNA shifted upward: about 1.6 μM
[3]
  second order reaction rate between a biothiol and the redox-regulating protein: about 10^3 M^−1s^−1
